{"source": "paper PMC7954794", "about": "“Protein context shapes the specificity of SH3 domain-mediated interactions in vivo” (Nature Communications, 2021)", "molecules": {"B1": {"name": "YML035C_1 (protein, UniProt P15274 1-810, looked up)", "AMP deaminase": "MDNQATQRLNDLSLEPAPSHDEQDGSGLVIDIDQRKIGDEQAGVVVDDETPPLEQQDSHESLAADSRNANFSYHENQQLLENGTKQLALDEHDSHSAILEQPSHSTNCSSSNIAAMNKGHDSADHASQNSGGKPRTLSASAQHILPETLKSFAGAPVVNKQVRTSASYKMGMLADDASQQFLDDPSSELIDLYSKVAECRNLRAKYQTISVQNDDQNPKNKPGWVVYPPPPKPSYNSDTKTVVPVTNKPDAEVFDFTKCEIPGEDPDWEFTLNDDDSYVVHRSGKTDELIAQIPTLRDYYLDLEKMISISSDGPAKSFAYRRLQYLEARWNLYYLLNEYQETSVSKRNPHRDFYNVRKVDTHVHHSACMNQKHLLRFIKHKLRHSKDEKVIFRDGKLLTLDEVFRSLHLTGYDLSIDTLDMHAHKDTFHRFDKFNLKYNPIGESRLREIFLKTNNYIKGTYLADITKQVIFDLENSKYQNCEYRISVYGRSLDEWDKLASWVIDNKVISHNVRWLVQIPRLYDIYKKTGIVQSFQDICKNLFQPLFEVTKNPQSHPKLHVFLQRVIGFDSVDDESKVDRRFHRKYPKPSLWEAPQNPPYSYYLYYLYSNVASLNQWRAKRGFNTLVLRPHCGEAGDPEHLVSAYLLAHGISHGILLRKVPFVQYLYYLDQVGIAMSPLSNNALFLTYDKNPFPRYFKRGLNVSLSTDDPLQFSYTREPLIEEYSVAAQIYKLSNVDMCELARNSVLQSGWEAQIKKHWIGKDFDKSGVEGNDVVRTNVPDIRINYRYDTLSTELELVNHFANFKRTIEEK"}, "B2": {"name": "YJL095W_1 (protein, UniProt Q01389 1-1478, looked up)", "Serine/threonine-protein …": "MPFLRKIAGTAHTHSRSDSNSSVKFGHQPTSSVASTKSSSKSPRATSRKSIYDDIRSQFPNLTPNSTSSQFYESTPVIEQSFNWTTDDHISAGTLENPTSFTNSSYKNDNGPSSLSDSRKSSGGNSVNSLSFDKLILSWDPTDPDEWTMHRVTSWFKFHDFPESWILFFKKHQLFGHRFIKLLAYDNFAVYEKYLPQTKTASYTRFQQLLKKTMTKNVTNSHIRQKSASKLKSSRSSSESIKSKLKNSKSQEDISNSRSTSESALSPTKSGPSKTDEKNFLHSTSTHQKTKSASSLYRRSFISLRGSSSSNASSAKSPSNIKLSIPARPHSIIESNSTLTKSASPPASPSYPSIFRRHHKSSSSESSLLNSLFGSGIGEEAPTKPNPQGHSLSSENLAKGKSKHYETNVSSPLKQSSLPTSDDKGNLWNKFKRKSQIGVPSPNTVAYVTSQETPSLKSNSSTATLTVQTADVNIPSPSSSPPPIPKTANRSLEVISTEDTPKISSTTASFKETYPDCINPDKTVPVPVNNQKYSVKNFLLDQKFYPLKKTGLNDSENKYILVTKDNVSFVPLNLKSVAKLSSFKESALTKLGINHKNVTFHMTDFDCDIGAAIPDDTLEFLKKSLFLNTSGKIYIKDQMKLQQKPKPAPLTSENNVPLKSVKSKSSMRSGTSSLIASTDDVSIVTSSSDITSFDEHASGSGRRYPQTPSYYYDRVSNTNPTEELNYWNIKEVLSHEENAPKMVFKTSPKLELNLPDKGSKLNIPTPITENESKSSFQVLRKDEGTEIDFNHRRESPYTKPELAPKREAPKPPANTSPQRTLSTSKQNKPIRLVRASTKISRSKRSKPLPPQLLSSPIEASSSSPDSLTSSYTPASTHVLIPQPYKGANDVMRRLKTDQDSTSTSPSLKMKQKVNRSNSTVSTSNSIFYSPSPLLKRGNSKRVVSSTSAADIFEENDITFADAPPMFDSDDSDDDSSSSDDIIWSKKKTAPETNNENKKDEKSDNSSTHSDEIFYDSQTQDKMERKMTFRPSPEVVYQNLEKFFPRANLDKPITEGIASPTSPKSLDSLLSPKNVASSRTEPSTPSRPVPPDSSYEFIQDGLNGKNKPLNQAKTPKRTKTIRTIAHEASLARKNSVKLKRQNTKMWGTRMVEVTENHMVSINKAKNSKGEYKEFAWMKGEMIGKGSFGAVYLCLNVTTGEMMAVKQVEVPKYSSQNEAILSTVEALRSEVSTLKDLDHLNIVQYLGFENKNNIYSLFLEYVAGGSVGSLIRMYGRFDEPLIKHLTTQVLKGLAYLHSKGILHRDMKADNLLLDQDGICKISDFGISRKSKDIYSNSDMTMRGTVFWMAPEMVDTKQGYSAKVDIWSLGCIVLEMFAGKRPWSNLEVVAAMFKIGKSKSAPPIPEDTLPLISQIGRNFLDACFEINPEKRPTANELLSHPFSEVNETFNFKSTRLAKFIKSNDKLNSSKLRITSQENKTE"}}, "system": "PPIs identified as affected by the SH3 domain deletions", "test": "Liquid DHFR-PCA low-throughput validation of PPIs affected by SH3 deletion (Fig. S1D-E)", "type": "cell-based, Saccharomyces cerevisiae", "settings": "label = prey, liquid DHFR-PCA, prey _1 = lost, _2 = gained in screen", "procedure,_shortened": "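Yeast diploids from DHFR-PCA mating grown 48 h in synthetic complete MSG medium pH 6.0 with NAT and HPH, normalized to 1 OD and diluted to 0.1 OD in liquid PCA selection medium. Growth followed by OD every 15 min for 72 h at 30 °C.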", "data": [{"molecule": "B1", "values": [{"measurement": "Ratio (Deletedscore / WTscore)", "setting": "bait", "result": 0.7244}]}, {"molecule": "B2", "values": [{"measurement": "Ratio (Deletedscore / WTscore)", "setting": "bait NBP2", "result": 0.6492}]}]}
